The source of these data is patent US20220064286A1 (Genentech, published 2022).

The target of test [1] is T1, mu TIGIT (target named for 10A7 in the heads of Tables 6 and 7) (mu (mouse), UniProt P86176 29-249, limits assumed).
T1 construct: Only the column head says mu TIGIT; the text describes no mouse TIGIT cells
T1 sequence (looked up): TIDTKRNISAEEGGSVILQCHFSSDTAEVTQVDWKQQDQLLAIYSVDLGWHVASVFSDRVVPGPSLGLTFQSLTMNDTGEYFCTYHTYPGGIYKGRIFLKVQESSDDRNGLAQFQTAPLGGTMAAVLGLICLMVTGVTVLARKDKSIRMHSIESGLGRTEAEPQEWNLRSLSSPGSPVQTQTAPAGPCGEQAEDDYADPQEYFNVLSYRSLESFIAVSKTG
The experiment in a line: FACS, T cell binding (row: Human T cell; column head: mu TIGIT). The essentials:
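Activated human peripheral blood T cells were stained with each anti-TIGIT antibody and analysed by flow cytometry. Binding was detected with a FITC-labelled anti-human IgG, gated on CD25+CD4+ and CD25+CD8+ cells (LSR-II or LSR-Fortessa, FlowJo). EC50 values come from these titrations.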
Background: In flow cytometry, cells or beads pass a laser one at a time.

The next test has as its target T2, hTIGIT mutant Y113A (human, UniProt Q495A1).
T2 sequence (TIGIT, looked up): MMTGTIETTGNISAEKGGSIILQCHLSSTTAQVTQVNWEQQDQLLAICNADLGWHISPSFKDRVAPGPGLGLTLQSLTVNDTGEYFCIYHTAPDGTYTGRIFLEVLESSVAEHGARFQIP
The experiment in a line: SPR (BIACORE), N=2. On the technique in general: In SPR one partner is held on a chip, and binding of the other changes the refractive index at the surface.

The target in another test is T3, hTIGIT mutant Q53A (human, UniProt Q495A1).
T3 sequence (TIGIT, looked up): T2 sequence (TIGIT, looked up) with Q32A, A92Y
The experiment in a line: SPR (BIACORE), N=2.

A further test has as its target T4, hTIGIT mutant L73A (human, UniProt Q495A1).
T4 sequence (TIGIT, looked up): T2 sequence (TIGIT, looked up) with L52A, A92Y
The test can be described thus: SPR (BIACORE), N=2.

The target of the next test is T5, human TIGIT protein (human, UniProt Q495A1 22-141, limits assumed).
T5 construct: Recombinant protein (Genentech) used in ELISA screening and as SPR analyte; also called TIGIT antigen
T5 sequence: T2 sequence (TIGIT, looked up) with A92Y
The experiment in a line: SPR (BIACORE), N=2.

Test [2] addresses T6, full-length human TIGIT on CHO cells (human, UniProt Q495A1 22-244).
T6 construct: also called CHO-hTIGIT; hu TIGIT
T6 sequence: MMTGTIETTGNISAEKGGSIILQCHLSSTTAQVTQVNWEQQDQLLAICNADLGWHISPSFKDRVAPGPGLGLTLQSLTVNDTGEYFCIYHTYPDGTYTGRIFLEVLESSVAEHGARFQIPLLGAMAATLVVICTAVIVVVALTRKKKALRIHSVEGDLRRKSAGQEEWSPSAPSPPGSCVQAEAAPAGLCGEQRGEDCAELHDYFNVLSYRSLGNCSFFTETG
The test can be described thus: FACS, PVR-Fc on CHO-TIGIT cells; competitor PVR-Fc. The procedure: These studies were further validated in CHO-TIGIT PVR blocking experiments in which TIGIT-expressing CHO cells were incubated with labeled PVR-Fc fusion protein in the presence of anti-TIGIT antibody or an human IgG1 control (FIG. 4A).

Another test addresses T7, HA-tagged TIGIT (human, UniProt Q495A1 22-244).
T7 sequence: T6 sequence
The test can be described thus: TR-FRET, HA-TIGIT with ST-CD226 on CHO cells; competitor CD226. The text has this: To test for the ability of the clones to block the TIGIT-CD226 interaction, TR-FRET (Time-resolved Fluorescence Resonance Energy Transfer) was used. First, human SNAP-tagged (ST) CD226 with non-permeant donor and acceptor fluorophores was expressed and labeled using CHO cells. The human ST-CD226 was co-expressed with HA-tagged TIGIT, in the presence or the absence of the OMT- and SD-derived anti-TIGIT antibody clones.

For test [3], the target named is T8, human TIGIT on activated human primary T cells (human, UniProt Q495A1 22-244).
T8 construct: also called Human T cell
T8 sequence: T6 sequence
The experiment in a line: FACS, activated human T cells. The procedure:
The OMT- and SD-derived anti-TIGIT clones were also tested for binding to human primary T cells by FACS analysis. Human PBMC were activated for with plate-bound anti-CD3 (5 μg/ml) and soluble anti-CD28 (2 μg/ml) for 2 days as described in Yu et al. Nature Immunology. 10: 48-57, 2009, which is incorporated herein by reference in its entirety. Cells were then washed and incubated with incubated with each anti-TIGIT antibody at the indicated concentrations and then detected via a FITC-labeled anti-hIgG antibody. Cells were also stained with anti-CD4, anti-CD8, and anti-CD25 (BD bioscience). Human CD4+(CD25+CD4+) and human CD8+(CD25+CD8+) T cells were assessed for binding by the anti-TIGIT clones by FACS. All samples were acquired on LSR-II or LSR-Fortessa instruments (BD Biosciences) and analyzed using FlowJo software (Treestar).

Test [4] concerns the target T6, full-length human TIGIT on CHO cells. The experiment in a line: FACS, CHO cells expressing TIGIT.

Changes are numbered by the printed parent chain. Names may count otherwise. A value given as a limit tells only on which side of the number the result lay.

B1: 10A7 (antibody, V domains shown)
VH: EVQLVESGGGLTQPGKSLKLSCEASGFTFSSFTMHWVRQSPGKGLEWVAFIRSGSGIVFYADAVRGRFTISRDNAKNLLFLQMNDLKSEDTAMYYCARRPLGHNTFDSWGQGTLVTVSS
VL: DIVMTQSPSSLAVSPGEKVTMTCKSSQSLYYSGVKENLLAWYQQKPGQSPKLLIYYASIRFTGVPDRFTGSGSGTDYTLTITSVQAEDMGQYFCQQGINNPLTFGDGTKLEIKR
Take B1: the concentration giving a half-maximal response (EC50) – broadly, the concentration giving half of the maximal effect – in [1] is 0.63 nM. In addition, the Kd (as a rule, the constant that tells how readily two partners part at equilibrium) in the test with hTIGIT mutant Y113A is 55.5 nM; with hTIGIT mutant Q53A, 32 nM; with hTIGIT mutant L73A, over 500 nM.

B2: 4.1D3 (antibody, V domains shown)
VH: QVQLQQSGPGLVKPSQTLSLTCAISGDSVSSNSAAWNWIRQSPSRGLEWLGKTYYRFKWYSDYAVSVKGRITINPDTSKNQFSLQLNSVTPEDTAVFYCTRESTTYDLLAGPFDYWGQGTLVTVSS
VL: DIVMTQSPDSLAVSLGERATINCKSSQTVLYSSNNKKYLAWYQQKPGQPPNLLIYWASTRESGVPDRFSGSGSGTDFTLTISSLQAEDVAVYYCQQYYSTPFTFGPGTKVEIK
notes: OMT rat-derived human antibody; also called 4.1D3.Q1
B2: the Kd with human TIGIT protein came to 0.5 nM; with hTIGIT mutant Y113A, 2.8 nM; with hTIGIT mutant Q53A, 0.8 nM; in the test with hTIGIT mutant L73A, 1.3 nM.

B3: 4.1D3.Q1E (antibody, V domains shown)
VH: B2 VH with Q1E
VL: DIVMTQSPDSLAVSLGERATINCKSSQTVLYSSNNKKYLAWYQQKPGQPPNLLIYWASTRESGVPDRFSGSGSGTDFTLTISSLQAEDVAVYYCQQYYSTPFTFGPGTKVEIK
As for B3, the IC50 – broadly, the concentration needed to halve the response being measured – turned out to be 0.29 nM in [2] and 45 nM with HA-tagged TIGIT. Moreover, the EC50 in [3] came to 1.36 nM; in test [4], 1.04 nM.

B4: 7.4A3.C96S.Q1E (antibody, V domains shown)
VH: EVQLVQSGSDLKKPGASVRVSCKASGYTFTSYPMNWVRQAPGHGLEWMGWINTNTGNPTYVQGFTGRFVFSLDTSVNTAYLQISSLKAEDTAVYFCARTGGHTYDSYAFDVWGQGTMVTVSS
VL: DIQLTQSPTFLSASVGDRVTITCRASQVISSSLAWYQQNPGKAPKLLIYAASTLQSGVPSRFSGSGSGTEFTLTISSLQPEDFVTYYCQHLHGYPSNFGQGTKVEIK
notes: also called 7.4A3.Q1E.C96S
For B4, the results for the IC50 (in test [2]; in the test with HA-tagged TIGIT) were 0.38 nM and 19.3 nM, respectively. Further, the EC50 is 2.63 nM in test [3] and 3.04 nM in test [4]. Further, binding with human TIGIT protein was characterised by a dissociation constant (Kd) of 1.8 nM.
